Source: patent US20220288219A1 (MYTHIC THERAPEUTICS, published 2022)

T1: CD22 Protein (His Tag), Sino Biological Cat. No. 11958-H08H (UniProt P20273 20-687)
T1 construct: soluble analyte, 50 nM in BLI; also called Sino Biological antigen
T1 sequence (looked up): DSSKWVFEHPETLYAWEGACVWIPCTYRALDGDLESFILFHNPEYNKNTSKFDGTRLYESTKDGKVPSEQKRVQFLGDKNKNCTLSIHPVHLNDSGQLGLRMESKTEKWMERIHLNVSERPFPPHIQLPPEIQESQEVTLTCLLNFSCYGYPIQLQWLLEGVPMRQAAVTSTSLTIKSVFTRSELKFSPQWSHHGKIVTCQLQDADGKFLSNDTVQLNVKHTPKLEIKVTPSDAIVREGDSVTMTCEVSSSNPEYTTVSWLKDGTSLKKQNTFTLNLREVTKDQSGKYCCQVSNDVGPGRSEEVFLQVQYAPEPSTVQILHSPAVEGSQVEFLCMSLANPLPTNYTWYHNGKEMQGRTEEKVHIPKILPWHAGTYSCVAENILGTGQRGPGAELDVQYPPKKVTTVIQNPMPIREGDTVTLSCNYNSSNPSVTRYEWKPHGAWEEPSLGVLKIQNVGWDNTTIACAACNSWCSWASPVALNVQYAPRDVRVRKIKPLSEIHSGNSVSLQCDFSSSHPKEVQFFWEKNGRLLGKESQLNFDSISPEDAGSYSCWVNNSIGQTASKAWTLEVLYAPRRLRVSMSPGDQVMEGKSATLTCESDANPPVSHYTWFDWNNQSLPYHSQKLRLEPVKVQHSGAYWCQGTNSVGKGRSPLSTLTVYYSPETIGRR

T2: cell surface CD22 on Ramos (CD22+) cells (human, UniProt P20273 20-847)
T2 construct: whole, on cells; also called CD22 on WSU-DLCL2, MHH-PREB-1 and Raji cells
T2 sequence (looked up): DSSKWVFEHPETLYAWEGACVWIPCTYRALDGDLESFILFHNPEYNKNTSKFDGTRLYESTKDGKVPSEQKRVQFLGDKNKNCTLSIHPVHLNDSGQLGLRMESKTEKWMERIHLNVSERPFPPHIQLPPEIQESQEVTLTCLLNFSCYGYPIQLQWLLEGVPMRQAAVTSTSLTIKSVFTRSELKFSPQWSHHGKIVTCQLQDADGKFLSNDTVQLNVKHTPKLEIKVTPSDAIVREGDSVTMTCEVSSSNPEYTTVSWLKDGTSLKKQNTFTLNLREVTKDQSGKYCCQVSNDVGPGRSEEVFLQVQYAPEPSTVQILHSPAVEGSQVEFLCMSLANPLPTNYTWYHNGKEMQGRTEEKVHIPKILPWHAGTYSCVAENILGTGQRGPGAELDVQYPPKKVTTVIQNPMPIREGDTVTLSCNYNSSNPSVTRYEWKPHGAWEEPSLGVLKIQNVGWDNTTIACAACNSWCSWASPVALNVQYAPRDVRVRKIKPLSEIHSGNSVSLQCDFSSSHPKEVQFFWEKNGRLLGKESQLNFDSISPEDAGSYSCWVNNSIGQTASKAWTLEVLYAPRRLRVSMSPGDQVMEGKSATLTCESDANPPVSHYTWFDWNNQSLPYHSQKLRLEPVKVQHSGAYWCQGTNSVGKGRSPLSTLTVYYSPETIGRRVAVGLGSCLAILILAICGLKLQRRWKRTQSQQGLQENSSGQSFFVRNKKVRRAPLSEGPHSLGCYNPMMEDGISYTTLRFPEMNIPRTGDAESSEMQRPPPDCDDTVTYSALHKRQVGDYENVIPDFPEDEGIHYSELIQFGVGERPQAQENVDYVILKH


biological target: T1, CD22 Protein (His Tag), Sino Biological …; experiment: BLI, IgG on anti-human Fc sensor

Binder | binding result
MYT4624 (antibody, V domains shown, 12C5 VH A33H; tie by order) VH: QVQLVQSGSELKKPGASVKVSCKASGYTFTSYHMNWVRQAPGQGLEWMGWINTNTGNPTYAQGFTGRFVFSLDTSVSTAYLQISSLKAEDTAVYYCARLFYYYFGMDVWGQGTTVTVSS VL: QSALTQPASVSGSPGQSITISCTGTSSDVGSYNLVSWYQLHPGKAPKLMIYEVSKRPSGVSNRFSGSRSGNTASLTISGLQAEDEADYYCCSYANSSTLVFGGGTKLTVL | no binding (tested: 50 nM)
MYT4715 (antibody, V domains shown, 19A3 VH A96H; tie by order) VH: QVQLQQWGAGLLKPSETLSLTCAVYGRSFSSYYWSWIRQPPGKGLEWIGDIQHSGSTNYNPSLKSRVTISVDTSKNQFSLKLSSVTAADTAVYYCHGTFYDILTGYYPLGYWGPGTLVTVSS VL: not shown | no binding (tested: 50 nM)

The remaining lines, values ahead:

binding result | Binder
no binding (tested: 50 nM) | MYT4651 (antibody, V domains shown, 12C5 VH M106H; tie by order) VH: QVQLVQSGSELKKPGASVKVSCKASGYTFTSYAMNWVRQAPGQGLEWMGWINTNTGNPTYAQGFTGRFVFSLDTSVSTAYLQISSLKAEDTAVYYCARLFYYYFGHDVWGQGTTVTVSS VL: QSALTQPASVSGSPGQSITISCTGTSSDVGSYNLVSWYQLHPGKAPKLMIYEVSKRPSGVSNRFSGSRSGNTASLTISGLQAEDEADYYCCSYANSSTLVFGGGTKLTVL
no binding (tested: 50 nM) | MYT4649 (antibody, V domains shown, 12C5 VH F104H; tie by order) VH: QVQLVQSGSELKKPGASVKVSCKASGYTFTSYAMNWVRQAPGQGLEWMGWINTNTGNPTYAQGFTGRFVFSLDTSVSTAYLQISSLKAEDTAVYYCARLFYYYHGMDVWGQGTTVTVSS VL: QSALTQPASVSGSPGQSITISCTGTSSDVGSYNLVSWYQLHPGKAPKLMIYEVSKRPSGVSNRFSGSRSGNTASLTISGLQAEDEADYYCCSYANSSTLVFGGGTKLTVL
no binding (tested: 50 nM) | MYT4626 (antibody, V domains shown, 12C5 VH N35H; tie by order) VH: QVQLVQSGSELKKPGASVKVSCKASGYTFTSYAMHWVRQAPGQGLEWMGWINTNTGNPTYAQGFTGRFVFSLDTSVSTAYLQISSLKAEDTAVYYCARLFYYYFGMDVWGQGTTVTVSS VL: QSALTQPASVSGSPGQSITISCTGTSSDVGSYNLVSWYQLHPGKAPKLMIYEVSKRPSGVSNRFSGSRSGNTASLTISGLQAEDEADYYCCSYANSSTLVFGGGTKLTVL
no binding (tested: 50 nM) | MYT4650 (antibody, V domains shown, 12C5 VH G105H; tie by order) VH: QVQLVQSGSELKKPGASVKVSCKASGYTFTSYAMNWVRQAPGQGLEWMGWINTNTGNPTYAQGFTGRFVFSLDTSVSTAYLQISSLKAEDTAVYYCARLFYYYFHMDVWGQGTTVTVSS VL: QSALTQPASVSGSPGQSITISCTGTSSDVGSYNLVSWYQLHPGKAPKLMIYEVSKRPSGVSNRFSGSRSGNTASLTISGLQAEDEADYYCCSYANSSTLVFGGGTKLTVL
no binding (tested: 50 nM) | MYT4720 (antibody, V domains shown, 19A3 VH D101H; tie by order) VH: QVQLQQWGAGLLKPSETLSLTCAVYGRSFSSYYWSWIRQPPGKGLEWIGDIQHSGSTNYNPSLKSRVTISVDTSKNQFSLKLSSVTAADTAVYYCAGTFYHILTGYYPLGYWGPGTLVTVSS VL: not shown
no binding (tested: 50 nM) | MYT4718 (antibody, V domains shown, 19A3 VH F99H; tie by order) VH: QVQLQQWGAGLLKPSETLSLTCAVYGRSFSSYYWSWIRQPPGKGLEWIGDIQHSGSTNYNPSLKSRVTISVDTSKNQFSLKLSSVTAADTAVYYCAGTHYDILTGYYPLGYWGPGTLVTVSS VL: not shown
no binding (tested: 50 nM) | MYT4723 (antibody, V domains shown, 19A3 VH T104H; tie by order) VH: QVQLQQWGAGLLKPSETLSLTCAVYGRSFSSYYWSWIRQPPGKGLEWIGDIQHSGSTNYNPSLKSRVTISVDTSKNQFSLKLSSVTAADTAVYYCAGTFYDILHGYYPLGYWGPGTLVTVSS VL: not shown

biological target: T2, cell surface CD22 on Ramos (CD22+) cells; experiment: flow cytometry, antibody titration on Ramos (CD22+) cells, AF488 anti-human IgG
Procedure: 100,000 cells per well were resuspended in 900 μL FC buffer in a 96 well deep well plate. Pinatuzumab, Inotuzumab, and pH engineered antibody variants were serially diluted at a 1:3 dilution. 100 μL of diluted antibody was added to each well with final concentration ranging from ˜100 nM to 0.024 pM and incubated for 2 hours at 4° C. Post incubation, the cells were spun at 2000 rpm for 2 min and supernatant was discarded. Cells were washed twice with 500 μL of ice-cold FC buffer and resuspended with 100 μL of FC buffer. The cells were then transferred from the deep well plate to 96 well round bottom plate, spun at 2000 rpm for 2 min and incubated with 100 μL of 10 μg/mL Alexa Fluor 488 conjugated goat anti-human IgG secondary antibody (ThermoFisher Scientific, A11013) for 30 min. Post incubation, cells were washed with FC buffer and resuspended in 100 μL of FC buffer to read on a BD Accuri C6 flow cytometer. Binding affinity was measured as a dissociation constant KD by GraphPad Prism assuming Michaelis-Menten binding kinetics. MYT1331, MYT4405 and MYT4424 show high affinity binding to cell surface CD22 on Ramos cells in the pM-nM range confirming that variants created through pH engineering can retain functionally appropriate affinities as compared to their corresponding starting ABPCs (e.g., inotuzumab or pinatuzumab).

IC50 | Binder
0.362 nM | pinatuzumab (antibody, V domains shown, IgG from Expi293; also called MYT1293; PINATUZUMAB starting ABPC) VH: EVQLVESGGGLVQPGGSLRLSCAASGYEFSRSWMNWVRQAPGKGLEWVGRIYPGDGDTNYSGKFKGRFTISADTSKNTAYLQMNSLRAEDTAVYYCARDGSSWDWYFDVWGQGTLVTVSS VL: DIQMTQSPSSLSASVGDRVTITCRSSQSIVHSVGNTFLEWYQQKPGKAPKLLIYKVSNRFSGVPSRFSGSGSGTDFTLTISSLQPEDFATYYCFQGSQFPYTFGQGTKVEIK
0.395 nM | MYT1331 (antibody, V domains shown, pinatuzumab VH F107H; tie by order) VH: EVQLVESGGGLVQPGGSLRLSCAASGYEFSRSWMNWVRQAPGKGLEWVGRIYPGDGDTNYSGKFKGRFTISADTSKNTAYLQMNSLRAEDTAVYYCARDGSSWDWYHDVWGQGTLVTVSS VL: DIQMTQSPSSLSASVGDRVTITCRSSQSIVHSVGNTFLEWYQQKPGKAPKLLIYKVSNRFSGVPSRFSGSGSGTDFTLTISSLQPEDFATYYCFQGSQFPYTFGQGTKVEIK
0.24 nM | MYT4405 (antibody, V domains shown, inotuzumab VH N31H+N103H; tie by order) VH: EVQLVQSGAEVKKPGASVKVSCKASGYRFTHYWIHWVRQAPGQGLEWIGGINPGNNYATYRRKFQGRVTMTADTSTSTVYMELSSLRSEDTAVYYCTREGYGHYGAWFAYWGQGTLVTVSS VL: DVQVTQSPSSLSASVGDRVTITCRSSQSLANSYGNTFLSWYLHKPGKAPQLLIYGISNRFSGVPDRFSGSGSGTDFTLTISSLQPEDFATYYCLQGTHQPYTFGQGTKVEIK
0.075 nM | inotuzumab (antibody, V domains shown, IgG from Expi293, captured by anti-human Fc; entries headed heavy/light chain hold only the variable domains; also called MYT0518; INOTUZUMAB starting ABPC) VH: EVQLVQSGAEVKKPGASVKVSCKASGYRFTNYWIHWVRQAPGQGLEWIGGINPGNNYATYRRKFQGRVTMTADTSTSTVYMELSSLRSEDTAVYYCTREGYGNYGAWFAYWGQGTLVTVSS VL: DVQVTQSPSSLSASVGDRVTITCRSSQSLANSYGNTFLSWYLHKPGKAPQLLIYGISNRFSGVPDRFSGSGSGTDFTLTISSLQPEDFATYYCLQGTHQPYTFGQGTKVEIK
0.115 nM | MYT4424 (antibody, V domains shown, inotuzumab VH N31H+T59H+N103H; tie by order) VH: EVQLVQSGAEVKKPGASVKVSCKASGYRFTHYWIHWVRQAPGQGLEWIGGINPGNNYAHYRRKFQGRVTMTADTSTSTVYMELSSLRSEDTAVYYCTREGYGHYGAWFAYWGQGTLVTVSS VL: DVQVTQSPSSLSASVGDRVTITCRSSQSLANSYGNTFLSWYLHKPGKAPQLLIYGISNRFSGVPDRFSGSGSGTDFTLTISSLQPEDFATYYCLQGTHQPYTFGQGTKVEIK
